# Assay: yeast display, Sf9 membrane polyspecificity reagent, FACS + sequencing; frameworks hold sequencing errors
# Summary of the method: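 Polyreactivity labels are assigned by the sorting gate from which each nanobody was recovered. The gates were low and high (top ~1%), set on anti-HA fluorescence for expression and streptavidin fluorescence for reagent binding. Before sorting, galactose-induced (36–48 hours) yeast display cells were stained for 1 hour at 4 °C with 10% biotinylated, detergent-solubilized Sf9 membrane reagent.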
row,Sequence,polyreactivity (PSR sort gate)
1,QVQLVESGGGLVQARGSLRLICAASGFTFYRYVMGWYRQAPGKVRELVAAITGRGGSTYYADSVKGRFTISRDNAKNTVYLQMNSRKPEDTAVYYCAARYVTGTLYLAPYEYWGQGTQVTLSS,low polyreactivity
2,QVQLVESGGGLVQARGSLRLICAASGSTFGVHAMGWSRQAPGKERELVAAITWRGGSTYYADSLKGRFTISRDTAKNTVYLQMNSLKPEDTAVYYCAADPRYYSYEYWGEGTQVTVSS,high polyreactivity
3,QVQLVESGGGLVQARGSLRLSCAASGFIFGYYAKGWYRQAPGKERELVAAISPSGGRTYYADSVKGRFTISRDNAKNTVYLQMNILKPEDTAVYYCAAEYAYSLDPVEDYWGQGTLVTVSS,high polyreactivity
4,QVQLVESGGGLVQARGSLRLSCAASGIILYRNGMGWYRQAPGKERELVAAISWSTGSTYYADSVKGRFTISRDNAKNTVYLQMNSLKPEDTAVYYCATDYVGYSFGMYYWGQGTQVTVSS,low polyreactivity
5,QVQLVESGGGLVQARGSLRLSCAASGITFGRNTMGWYRQAPGKERELVAAIDSGGNTYADSVKGRFTISRDNAKNTVYLQMNSLKPDDTAVYYCAVDGGEFSSYGYWGQGTQVTVSS,low polyreactivity
6,QVQLVESGGGLVQARGSLRLSCAASGLTSRYYAMGWYRQAPGKERELVAAISSRGGRTYYADSVKGPFTISRDNAKNTVYLQMNSLQPEDTAVYYCYAAAGAYSFLSTYNRGEEYWGQGTQVTVSS,high polyreactivity
7,QVQLVESGGGLVQARGSLRLSCAASGRIFNTYAMGRYIQAPGKERELVAAITSSGGSTYYADSVKGRFTISRDNAKNTVYFQMNSLKPEDTAVYYCNAGSLHRRYYYEGDYWGQGTQVTVSS,high polyreactivity
8,QVQLVESGGGLVQARGSLRLSCAASGRIFRYYAMGSYRQAPGKERELVASITSGARTSYADSVKGRFTISRDIAKNTVYLQMNSLKPEDTAVYYCAAGGRARTYYYWGQGTQVTVSS,high polyreactivity
9,QVQLVESGGGLVQARGSLRLSCAASGRTISYNVMGWYRQAPGKERELVAAITWTGGSTYYADSVKGRFTISRDNAKNTVYLLMNSLKPEDTAVYYCNAAKPYAYWVPNDYWGQGTQVTVSS,low polyreactivity
10,QVQLVESGGGLVQARGSLRLSCAASGSIFGYNVMGWYRQAPGIERELVAAITVNGGRTYYADSVKGRFTISRDNAKNTVYLQMNSLIPEDTAVDDCAARVTGTQRSGYYWGQGTQVTVSS,high polyreactivity
11,QVQLVESGGGLVQARGSLRLSCAASGSIFNLYAMGWYRQAPGKEREFVASISYSGGSTYYADSVKGRFTISRDNAKNTVYLQINSLKPEDTAVYYCNARLEVYGQRYDYWGQGTQVTVSS,low polyreactivity
12,QVQLVESGGGLVQARGSLRLSCAASGSIFSANAMGWYRQAPVKERELVAAISSSGNTNYADSVKGRFTISRDNAKNTLYLQMNSLKPEDTAVYYCAVELKQVTPGLGYITLDYWGQGTQVTVSS,low polyreactivity
13,QVQLVESGGGLVQARGSLRLSCAASGSIFYGYALGWYRQAPGKERELVAAITSSGTRTYYADSVKGRFTISRDNAKNTVYLQMNSLKPEDTAVYYCAADGPGYQYDFWGQGTQVTVSS,high polyreactivity
14,QVQLVESGGGLVQARGSLRLSCAASGSTFLFYAMGWYRQPPGKERELVAAISRGDSTYYAESVKGRFTISRDIAKNTVYLQMNSLKPEDTAVYYCAAGYNHLYVYRMYYWGQGTQVTVSS,high polyreactivity
15,QVQLVESGGGLVQARGSLRLSCAASGSTFQYTMGCYRQAPRTERELVAAITSTGGSTYYADSVKGRFTISRDNAKNTVYLQRNSLKAEDTAVYYWNADYFGGGDYWGQGTQVTVSS,low polyreactivity
16,QVQLVESGGGLVQARGSLRLSCAASGSTFSYYTMGWYRQAPGKERELVATISRRGASTYYADSVKGRFTISRDNAKNTVYLQMHSLKPEDTAVYYCAKSYYYGRSATRPEYDYWGQGTQVTVSS,high polyreactivity
17,QVQLVESGGGLVQARGSLRLSCAASGSTILYYAMGWYRQAPGKERELVAVIRLDAGRTYYADSVKGRFTISRDNAKNTVYFQMNSLKPEDTAVYYCAAKGCFRTYGGGNYWGQGTQVTVSS,high polyreactivity
18,QVQLVESGGGLVQARGSLRLSCAASVSTFGGNAMGWYRQAPGKERQLVAAISCIGGGTYYADSVKGRFTISRDNAKNTVYLQMKSLKPEYTAVYYCAAKIFIRVHYYSYRMYYWGQGTQLTVSS,low polyreactivity
19,QVQLVESGGGLVQARGSLRLSCAATGSTLSFYAMVWYRQAPGKERELVAAISYSTGTTYYADSVKGRFTISRDNAKNTVYLQMNSLKPEDTAVYYCNAVGTGGYSSEYGYWGQGTQVTVSS,high polyreactivity
20,QVQLVESGGGLVQARGSLRLSCEASGFTFGSNTMACYRQAPGKERELVAAITRRGGSTNYADSVKGRFTISRDNAKNTVYLQMNSLKPDDTAVYYCARDYRSYTVSYDTSYDYWGQGTQVTVSS,high polyreactivity
21,QVQLVESGGGLVQARGSLRLSSAASGSTFVVNAMGWYRQAPGKERELVAAITQSGGSTFYADSVKGRFTISRVNAKNTVYLQMNSLQAEDTAVYYWGQGTQVTVSS,low polyreactivity
22,QVQLVESGGGLVQARGSLRLSSGASGSTFATDYAMGWYRQAPGKERELDAAIAYTSASTYYADSVKGRITISRDNAKNPVYLQMNTLKPEDTAVYYCAADYGGTREYYWGQGTQVTVSS,low polyreactivity

row,Sequence,polyreactivity (PSR sort gate)
1,QVQLVESGGGLVQARGSRRLSCAASGFIFRFNAMGWYRQAPGKERELVASITGSGGITYADSVKRRFTMSRDNAKNTVFLPMHSLKPDDTAVYYSAARGDGYQSGWVADWAPFYYWRQGTQVTVSS,high polyreactivity
2,QVQLVESGGGLVQARRSLRLSCAASGFTVKRYAMGWYRPEPGKEREFVAAITRGGGSTYYADYVKGRFTISRDNAKNTVYLQMNSLKPEDTAVYYCNARSRSYVPYYYWGQGTQVTVSS,high polyreactivity
3,QVQLVESGGGLVQARRSLRLSCAASGNIFWRNAMGWYRQAPGKERELVAAISRRAVSTYYADSVKGRFTISRDNAKNTVYLQMNSLKPEDTAVYYCAARLGGENDYWGQGTQVTVSS,high polyreactivity
4,QVQLVESGGGLVQAVASLRLSCAASGRIFGPYAMGWDRQAPGKERELVASITRSGGRTYYADSVKGRFTISRDYAKNTVYLQMNSLKPDDTAVYYCAAGGFSKSDYYWGQGTQVTVSS,high polyreactivity
5,QVQLVESGGGLVQAVGRLRLSCAASGGIFSINAMGWYRQAPGKERELVAAIRWNSGRTYYADSVKGRFTISRDNAKNTVYLQMNSLKPEDTAVYYCAVRDYISWEDYYWGQGTQVTVSS,high polyreactivity
6,QVQLVESGGGLVQAVGRLRLSCAASGSTFAIYAMGWYRQAPGKERELVAAITVSGGSTYYADSVKGRFTISRDNAKNTVYLQMNSLKPEDTAVYYCNADWSGWQGWYNYWGQGTQVTVSS,low polyreactivity
7,QVQLVESGGGLVQAVGSLRLSCAACGSIFYWNALGWYRQAPGKEREFVASIRKSGGSTNYADSVKGRFTISRDNAMNTVYLQMNSMKPEDSAVYDCAAYSYYRGPIYDYWGQGTQVTVSS,low polyreactivity
8,QVQLVESGGGLVQAVGSLRLSCAASGFPFRRYALGCYRQAPGKERELDATISSSGASTYYADSVKGRFTISRDHAKNTVYFKMIRLKPVDTAVYYCAATKGSICKLYLYCLFDYWGQGTQVTVSS,high polyreactivity
9,QVQLVESGGGLVQAVGSLRLSCAASGGIFRVYAMGWYREAPGKEREMVAAIRWTGGSTYYADSVKGRFKISRDNAKNTVYLQMKRLKPEDTAVYYWAAGRYYSDGSRTIYDYWGQGTQVTVSS,low polyreactivity
10,QVQLVESGGGLVQAVGSLRLSCAASGGTIDIYAMGWYRQAPAKERELVARISYSSGSTHYADSVKGRFTNSRDNAKNTVYLQMNSLKPEDTAVYYCAATAYWFYAKYYYWGQGTQVTVSS,high polyreactivity
11,QVQLVESGGGLVQAVGSLRLSCAASGRIFRVNAMGWYRQAPGKERELVASITSGGSTHYADSVKGRFTISRDNAKNTVYLQMNSLKPEDTAVYYCNVAYGLLWISPGGDYWGQGTQVTVSS,low polyreactivity
12,QVQLVESGGGLVQAVGSLRLSCAASGRTFYYYAMGWYRQAPGKERELVASITYYADSVKGRFTISRDNAKNTVYLQMKSLKPEDTAVYYCAARANSYHSFTSHYDYWGQGTQVSVSS,low polyreactivity
13,QVQLVESGGGLVQAVGSLRLSCAASGSIFGGYAMGWYRQAPGKERELVAAITYSGGSTYYADSVKGRFTISRDNAKNTVYLQMNSLKPEDTAVYYCAAESYDPYYEYDYWGQGTQVTVSS,high polyreactivity
14,QVQLVESGGGLVQAVGSLRLSCAASGSIFQPYAMGWYRQAPGKERELVAAISIGDSTNYADSVKGRFTISRDNAKNTVYLQMNSLKPEDTAVYYCNTTGEYYDYWGQGTQVTVSS,low polyreactivity
15,QVQLVESGGGLVQAVGSLRLSCAASGSTFLLNAMGWYRQAPGKEREFVAAITGNAGSTYYADSVKGRFTISRDNAKNTVYLQMNSLKPEDTAVYYCAAALPGYDGDYWGQGTQVTVSS,low polyreactivity
16,QVQLVESGGGLVQAVGSLRLSCAASGSTLTSYGMGWYRQAPGKERELVAAISRNGGGTYYADSVKGRFTISRDNAKNTVYLQMNSLKPEDTAGYYCAVVRYSSRYDYWGQGTQVTVSS,high polyreactivity
17,QVQLVESGGGLVQAVGSLRLSCADSGLPFYRNAMGWYRQARGKVRELVAAISLRGGSTYYADSVKGRFTISRDHAKNPVYLQMNSLKPEDTAVYYCAARRWWLNLDYWGQGTQVTVSS,high polyreactivity
18,QVQLVESGGGLVQAVGSLRLSCDATGSTLHKNTMGWYRQAPAKERELVAAISRRGGSTYYADSVKGRFTISRDNAKITVYLQMNSLKPEDTAVYYCATEGYDGEFDYWGQGTQVTVSS,high polyreactivity
19,QVQLVESGGGLVQAVGSLRLTCAASGITFLNYAMGWYRQAPGKERELVSAISWSGGRTYYAVSVKGRFTISRDYAKNTVYLQMNSLKPEDTAVYYCATVYVRYRQSRLIRYGYWGQGTQVTVSS,high polyreactivity
20,QVQLVESGGGLVQAVVSLRLSCAASGSIFGGYAMGWYRQAPGKERELVAAISYRGASTYYADSVKGRFTISRDNAKNTVYLQMNSLKPEDTAVYYCAVAARTRARVLYGYDYWGQGTQVTVSS,low polyreactivity
21,QVQLVESGGGLVQEGCSLRLSCAPSGIIFGVNAMGLYRQAPAKERELVAVITWSGGSTYYADSVKGRFTISRDNAKNTVYLQMNSLKPEDTAVYYCNADSSASTIDRQGEYYYLGQGTQVTVSS,low polyreactivity

# Source: the nanobody polyreactivity screen of Harvey et al. (2022)
